Where a chain is given by its changes, count along the chain named.
B1: IR-132 antibody (antibody, mouse IgG2b, V domains shown)
VH: DVQLVESGGGLVQPGGSRKLSCAASGFTFSSFGMHWVRQAPEKGLEWVAYISSGSSTIYYADTVKGRFTISRDNPKNTLFLQMTSLRSEDTAMYYCARDGNYVGWFAYWGQGTLVTVSA
VL: DVVMTQTPLSLPVSLGDQASISCRSSQSLVHSNGNTYLHWYLQKPGQSPKLLIYKVSNRFSGVPDRFSGSGSGTDFTLKISRVEAEDLGVYFCSQSTHVPLTFGAGTKLELK
notes: mouse IgG2b
B2: IR-135 antibody (antibody, V domains shown)
VH: QVQLQQSGAELAKPGASVKMSCKASGYTFTSYWMHWVKQRPGQGLEWIGYINPSTGYTEYNQKFKDKATLTADKSSSTAYMQLSSLTSEDSAVYYCDYYGSSYGYFDVWGAGTTVTVSS
VL: B1 VL with Y91F
notes: mouse IgG2a
B3: IR-155 antibody (antibody, V domains shown)
VH: DVQLVESGGGLVQPGGSRKLSCAASGFTFSSFGMHWVRQAPEKGLEWVAYISSGSSTIYYADTVKGRFTISRDNPKNTLFLQMTSLRSEDTAMYYCARLDGYRGDYWGQGTTLTVSS
VL: B1 VL with A105S, L111I
notes: mouse IgG2a
B4: IR-154 antibody (antibody, V domains shown)
VH: DVQLVESGGGLVQPGGSRKLSCAASGFSFSSFGMHWVRQAPEKGLEWVAYISSGRSTIYYADTVKGRFTISRDNPKNTLFLQMTSLRSEDTAMYYCARLRGNLDYAMDYWGQGTSVTVSS
VL: B1 VL with L101F, A105S, L111I
notes: mouse IgG2a
B5: IR-139 antibody (antibody, mouse IgG2b, V domains shown)
VH: DVQLVESGGGLVQPGGSRKLSCAASGFTFSSFGMHWVRQAPEKGLEWVAYISSGSSTIYYADTVKGRFTISRDNPKNTLFLQMTSLRSEDTAMYYCARDEGYFDYWGQGTTLTVSS
VL: B1 VL
notes: mouse IgG2b
B6: IR-150 antibody (antibody, mouse IgG2b, V domains shown)
VH: not shown
VL: B1 VL
notes: mouse IgG2b

molecular target: T1, A beta oligomer (synthetic A beta1-40, HCl form, 0.1 mg/ml in PBS, incubated at 37 degrees C for one hour) (UniProt P05067 672-711); test: SPR (Biacore 3000)
T1 construct: domain: A beta1-40; non-fibrous multimer of the peptide; also called A beta 1-40 oligomer
Protocol: The analysis was carried out by Surface Plasmon Resonance (SPR) using Biacore 3000 (GE Healthcare Sciences).

Row | Binder | Kd [nM] | koff [s⁻¹] | kon [M⁻¹ s⁻¹]
1 | B1 | 22.1 | 0.00517 | 234000
2 | B2 | 1290 | 0.116 | 89900
3 | B3 | 1050 | 0.37 | 351000
4 | B4 | 1050 | 0.41 | 389000
5 | B5 | 50.6 | 0.00165 | 32600
6 | B6 | 517 | 0.124 | 240000
